Measured values reported in publication PMC9246859 (Nature chemical biology, 2022).
* marks the point of attachment. FITC = O=C1OC2(c3ccc(O)cc3Oc3cc(O)ccc32)c2ccc(NC(=S)*)cc21; βAla = NCCC(=O)O

Assays:
[1] = target: T1, NorA (S. aureus quinolone efflux pump), C-terminal decahistidine tag, in PMAL-C8 amphipol (S. aureus) (UniProt Q5HHX4); assay: MST
T1 sequence: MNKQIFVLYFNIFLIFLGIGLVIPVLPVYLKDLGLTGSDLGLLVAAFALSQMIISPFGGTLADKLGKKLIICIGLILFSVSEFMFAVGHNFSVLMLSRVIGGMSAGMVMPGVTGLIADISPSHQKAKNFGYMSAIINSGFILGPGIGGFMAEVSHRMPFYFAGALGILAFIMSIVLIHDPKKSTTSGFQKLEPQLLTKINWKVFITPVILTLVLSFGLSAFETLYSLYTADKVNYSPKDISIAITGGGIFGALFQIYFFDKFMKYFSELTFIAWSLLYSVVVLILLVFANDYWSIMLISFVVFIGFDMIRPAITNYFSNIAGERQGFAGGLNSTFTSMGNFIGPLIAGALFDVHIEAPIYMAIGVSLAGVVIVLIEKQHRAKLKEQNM

[2] = target: NorA (S. aureus quinolone efflux pump), C-terminal decahistidine tag, in PMAL-C8 amphipol (S. aureus, UniProt Q5HHX4); assay: MST
[3] = target: T2, NorA (S. aureus quinolone efflux pump), C-terminal decahistidine tag, in PMAL-C8 amphipol (S. aureus, UniProt Q5HHX4 1-388); assay: fluorescence polarisation
T2 sequence: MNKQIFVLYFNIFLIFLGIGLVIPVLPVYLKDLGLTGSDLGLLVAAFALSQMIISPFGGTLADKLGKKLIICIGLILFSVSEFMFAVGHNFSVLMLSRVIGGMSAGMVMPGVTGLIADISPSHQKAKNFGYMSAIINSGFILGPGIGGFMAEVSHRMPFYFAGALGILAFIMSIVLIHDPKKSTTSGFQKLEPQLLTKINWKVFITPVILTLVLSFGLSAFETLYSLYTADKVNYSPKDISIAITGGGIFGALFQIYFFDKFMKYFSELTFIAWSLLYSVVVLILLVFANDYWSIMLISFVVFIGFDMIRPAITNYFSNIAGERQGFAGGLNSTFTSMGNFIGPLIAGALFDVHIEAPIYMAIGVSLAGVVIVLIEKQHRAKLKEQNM

B1: Fab36 R134A (CDRH3 mutant) (Fab, V domains shown)
VH: EVQLVESGGGLVQPGGSLRLSCAASGFTFSSSSIHWVRQAPGKGLEWVASISSSSGSTSYADSVKGRFTISADTSKNTAYLQMNSLRAEDTAVYYCARYSRYYYYAWAVGGYWGGLDYWGQGTLVTVFN
VL: DIQMTQSPSSLSASVGDRVTITCRASQSVSSAVAWYQQKPGKAPKLLIYSASSLYSGVPSRFSGSRSGTDFTLTISSLQPEDFATYYCQQSSSSLITFGQGTKVEIK
Kd [1]: > 14000 nM

B2: Fab36 W133A (CDRH3 mutant) (Fab, V domains shown)
VH: EVQLVESGGGLVQPGGSLRLSCAASGFTFSSSSIHWVRQAPGKGLEWVASISSSSGSTSYADSVKGRFTISADTSKNTAYLQMNSLRAEDTAVYYCARYSRYYYYAARVGGYWGGLDYWGQGTLVTVFN
VL: DIQMTQSPSSLSASVGDRVTITCRASQSVSSAVAWYQQKPGKAPKLLIYSASSLYSGVPSRFSGSRSGTDFTLTISSLQPEDFATYYCQQSSSSLITFGQGTKVEIK
fold reduction of binding affinity against Fab36 [2]: ~20 fold

B3: Fab36 (synthetic antigen-binding fragment against NorA) (Fab, V domains shown)
VH: EVQLVESGGGLVQPGGSLRLSCAASGFTFSSSSIHWVRQAPGKGLEWVASISSSSGSTSYADSVKGRFTISADTSKNTAYLQMNSLRAEDTAVYYCARYSRYYYYAWRVGGYWGGLDYWGQGTLVTVFN
VL: DIQMTQSPSSLSASVGDRVTITCRASQSVSSAVAWYQQKPGKAPKLLIYSASSLYSGVPSRFSGSRSGTDFTLTISSLQPEDFATYYCQQSSSSLITFGQGTKVEIK
Kd [2]: 140 nM

B4: Fab25 (synthetic antigen-binding fragment against NorA) (Fab, V domains shown)
VH: EVQLVESGGGLVQPGGSLRLSCAASGFTFSSSSIHWVRQAPGKGLEWVASISSSSGSTSYADSVKGRFTISADTSKNTAYLQMNSLRAEDTAVYYCARWETGYYPYWRMYGFYWALDYWGQGTLVTVFN
VL: DIQMTQSPSSLSASVGDRVTITCRASQSVSSAVAWYQQKPGKAPKLLIYSASSLYSGVPSRFSGSRSGTDFTLTISSLQPEDFATYYCQQSSSSLITFGQGTKVEIK
Kd [2]: 1200 nM

B5: FITC-NPI-1 (fluorescent analog of NPI-1) (peptide)
peptide: {FITC-βAla}-YYYYAWRVGGYWR-NH2
SMILES: CC(C)[C@H](NC(=O)[C@H](CCCNC(=N)N)NC(=O)[C@H](Cc1c[nH]c2ccccc12)NC(=O)[C@H](C)NC(=O)[C@H](Cc1ccc(O)cc1)NC(=O)[C@H](Cc1ccc(O)cc1)NC(=O)[C@H](Cc1ccc(O)cc1)NC(=O)[C@H](Cc1ccc(O)cc1)NC(=O)CCNC(=S)Nc1ccc2c(c1)C(=O)OC21c2ccc(O)cc2Oc2cc(O)ccc21)C(=O)NCC(=O)NCC(=O)N[C@@H](Cc1ccc(O)cc1)C(=O)N[C@@H](Cc1c[nH]c2ccccc12)C(=O)N[C@@H](CCCNC(=N)N)C(N)=O
Kd [3]: 10 nM
